Reference: patent US20250333487A1 (CYTOMX THERAPEUTICS, published 2025)
Values belong to the binder of their own block, whether it stands above or below them. Where no end group is shown, it is not given here. The star is where a group is joined. Biotin = O=C1N[C@H]2[C@H](CS[C@H]2CCCCC(=O)*)N1

Tests used:
[1] = molecular target: T1, biotinylated BC2 tag peptide QGQSGQPDRKAAVSHWQ; assay: BLI (ForteBio Octet), biotinylated peptide on SSA biosensor tips
T1 construct: Synthesized at ELIM Biopharmaceuticals; loaded on SSA biosensor tips at 100 nM; also called free BC2T peptide; the peptide
T1 peptide: Biotin-QGQSGQPDRKAAVSHWQ
Method: Intact ProC653 and ProC654 show no binding to the biotinylated BC2 tag peptide, but binding was recovered upon activation with either MMP14 or MMP9, respectively.
(§1) Binding of the unmasked nanobody and single-anchored BC2T-Nb to free BC2T peptide was assessed by BLI using the ForteBio Octet device. While BLI is generally used to calculate association and dissociation kinetics of binding interactions, it was used herein to detect binding Peptide corresponding to the following sequence: […] (SEQ ID NO: 567) was synthesized at ELIM Biopharmaceuticals with a biotin at the N-terminus. The peptide was loaded on SSA biosensor tips (Pall/ForteBio Cat #18-5117) at 100 nM in Binding Buffer (BB: 1×PBS, pH 7.2, 5% glycerol, 0.1% Tween-20, 2% BSA) for 10 minutes. Baseline incubation in BB for 1 min before and after this capture step were used to confirm protein capture. The loaded tips were then incubated in 100 nM Nb in BB for 6 minutes followed by incubation in BB for 6 minutes. Changes in interference distance (nanometers) at the sensor tip are plotted against time to follow the binding/dissociation of soluble proteins from the immobilized ligand on the tip (FIG. 7).

[2] = molecular target: T1, biotinylated BC2 tag peptide …; assay: BLI (ForteBio Octet), biotinylated peptide on SSA biosensor tips, 100 nM Nb
Method: as §1

binding result [1]: no binding (tested: 100 nM)
B1: ProC654 (PP078), single-anchored BC2T-Nb: BC2 tag-PLGLAG-Nanobody, intact (VHH)
chain: QGQSGQPDRKAAVSHWQQGGGSSGGSPLGLAGGGGSQVQLVESGGGLVQPGGSLTLSCTASGFTLDHYDIGWFRQAPGKEREGVSCINNSDDDTYYADSVKGRFTIFMNNAKDTVYLQMNSLKPEDTAIYYCAEARGCKRGRYEYDFWGQGTQVTVSSGGSHHHHHHHHHH
notes: Monomer, uncleaved (masked) form; also called single-domain antibody with MM attached with a CM PLGLAG

binding result [1]: no binding (tested: 100 nM)
B2: ProC653 (PP077), single-anchored BC2T-Nb: BC2 tag-1490DNI-Nanobody, intact (VHH)
chain: QGQSGQPDRKAAVSHWQQGGGSSGGSISSGLLSGRSDNIGGGSQVQLVESGGGLVQPGGSLTLSCTASGFTLDHYDIGWFRQAPGKEREGVSCINNSDDDTYYADSVKGRFTIFMNNAKDTVYLQMNSLKPEDTAIYYCAEARGCKRGRYEYDFWGQGTQVTVSSGGSHHHHHHHHHH
notes: Monomer, uncleaved (masked) form; also called single-domain antibody with MM attached with a CM 1490DNI

binding result [2]: binds
B3: ProC649 (PP073), single-domain antibody (nanobody) with no MM attached, with His tag (VHH)
VHH: QVQLVESGGGLVQPGGSLTLSCTASGFTLDHYDIGWFRQAPGKEREGVSCINNSDDDTYYADSVKGRFTIFMNNAKDTVYLQMNSLKPEDTAIYYCAEARGCKRGRYEYDFWGQGTQVTVSS
notes: Monomer; also called unmasked nanobody; unmasked control
